Assay results taken from PMC3676522 (Synapse (New York, N.Y.), 2011).

Assays:
DA transporter (DAT) = DA transporter (DAT) (Rattus norvegicus, UniProt P23977); test: [3H]DA uptake into rat striatal synaptosomes; assay type: biochemical
human DAT = human DAT (Homo sapiens, UniProt Q01959); test: Dissociation of [3H]WIN 35,428 binding from HEK/hDAT cells; details: for Dissociation rate K−1 of [3H]WIN 35,428 binding (single component model): experiment B
Sequence of human DAT (Q01959 whole entry): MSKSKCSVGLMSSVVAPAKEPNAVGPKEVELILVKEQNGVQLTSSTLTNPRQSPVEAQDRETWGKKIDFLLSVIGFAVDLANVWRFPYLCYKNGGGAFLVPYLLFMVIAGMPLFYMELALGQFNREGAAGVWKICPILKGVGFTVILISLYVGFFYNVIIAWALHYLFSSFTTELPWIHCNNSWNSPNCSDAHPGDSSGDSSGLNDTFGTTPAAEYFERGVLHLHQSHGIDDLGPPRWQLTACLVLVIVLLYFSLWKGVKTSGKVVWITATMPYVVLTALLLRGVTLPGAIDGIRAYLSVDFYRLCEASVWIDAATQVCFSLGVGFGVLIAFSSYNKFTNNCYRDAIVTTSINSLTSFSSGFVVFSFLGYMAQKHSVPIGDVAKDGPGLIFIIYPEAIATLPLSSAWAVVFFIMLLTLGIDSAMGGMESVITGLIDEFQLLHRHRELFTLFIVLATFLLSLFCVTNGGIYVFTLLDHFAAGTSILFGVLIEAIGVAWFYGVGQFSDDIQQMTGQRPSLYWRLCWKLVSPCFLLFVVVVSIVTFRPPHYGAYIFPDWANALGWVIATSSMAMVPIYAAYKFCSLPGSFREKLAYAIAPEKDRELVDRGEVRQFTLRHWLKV

Sequence of DA transporter (DAT) (P23977 whole entry): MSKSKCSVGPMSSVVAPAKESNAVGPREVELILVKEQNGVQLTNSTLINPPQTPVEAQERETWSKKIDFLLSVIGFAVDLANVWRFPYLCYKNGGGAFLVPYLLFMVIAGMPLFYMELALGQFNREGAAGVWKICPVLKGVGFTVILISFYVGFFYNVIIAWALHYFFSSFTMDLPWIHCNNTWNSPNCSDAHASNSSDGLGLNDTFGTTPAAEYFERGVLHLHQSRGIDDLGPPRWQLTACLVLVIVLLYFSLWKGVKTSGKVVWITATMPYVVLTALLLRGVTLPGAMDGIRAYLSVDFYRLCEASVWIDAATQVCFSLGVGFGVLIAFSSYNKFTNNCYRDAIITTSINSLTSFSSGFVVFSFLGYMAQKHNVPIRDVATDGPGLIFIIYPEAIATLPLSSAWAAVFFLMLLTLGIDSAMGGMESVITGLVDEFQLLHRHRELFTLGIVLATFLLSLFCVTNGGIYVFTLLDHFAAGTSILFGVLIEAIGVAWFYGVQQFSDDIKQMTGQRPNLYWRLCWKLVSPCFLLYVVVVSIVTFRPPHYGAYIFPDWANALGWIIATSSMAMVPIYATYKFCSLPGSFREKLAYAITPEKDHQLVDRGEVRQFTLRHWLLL

CN[C@@H]1C[C@@H](c2ccc(Cl)c(Cl)c2)c2ccccc21.Cl [Indatraline, indatraline hydrochloride]
Specific Uptake (percentage of control) (DA transporter (DAT); indatraline 10 nM, control = cocaine alone): 33%

COC(=O)[C@H]1[C@@H](OC(=O)c2ccccc2)C[C@@H]2CC[C@H]1N2C [Cocaine]
Specific Uptake (percentage of control) (DA transporter (DAT); control (cocaine alone)): 100%

B1: Tat: Recombinant HIV-1 Tat1-86 protein, LA1/Bru strain of HIV-1 clade B, Genbank accession no. K02013 (protein)
chain: MEPVDPRLEPWKHPGSQPKTACTTCYCKKCCFHCQVCFTTKALGISYGRKKRRQRRRPPQGSQTHQVSLSKQPTSQPRGDPTGPKE
Specific Uptake (percentage of control) (DA transporter (DAT); Tat 5 μM, control = cocaine alone): 45%
Dissociation rate of [3H]WIN 35,428 relative to that observed with cocaine alone (human DAT; Tat added after cocaine): 25%
Dissociation rate K−1 of [3H]WIN 35,428 binding (single component model) (human DAT; condition-2: cocaine 10 μM at time 0, Tat 5 μM added 5 min later): 0.08 ± 0.005 min⁻¹
Dissociation rate K−1 of [3H]WIN 35,428 binding (single component model) (human DAT; condition-3: Tat 5 μM alone): 0.03 ± 0.009 min⁻¹
